Data on three molecules can be found in patent publication CN114829399A (dated 2022).

The labels stand for the following.
T1: 人FLT3/FLK2受体蛋白 (human, UniProt P36888 27-993)
T1 construct: whole, on cells; Always presented on cells (REH/Reh endogenous); also called CD135; 人酪氨酸激酶受体FLT3/FLK2受体蛋白
T1 sequence (looked up): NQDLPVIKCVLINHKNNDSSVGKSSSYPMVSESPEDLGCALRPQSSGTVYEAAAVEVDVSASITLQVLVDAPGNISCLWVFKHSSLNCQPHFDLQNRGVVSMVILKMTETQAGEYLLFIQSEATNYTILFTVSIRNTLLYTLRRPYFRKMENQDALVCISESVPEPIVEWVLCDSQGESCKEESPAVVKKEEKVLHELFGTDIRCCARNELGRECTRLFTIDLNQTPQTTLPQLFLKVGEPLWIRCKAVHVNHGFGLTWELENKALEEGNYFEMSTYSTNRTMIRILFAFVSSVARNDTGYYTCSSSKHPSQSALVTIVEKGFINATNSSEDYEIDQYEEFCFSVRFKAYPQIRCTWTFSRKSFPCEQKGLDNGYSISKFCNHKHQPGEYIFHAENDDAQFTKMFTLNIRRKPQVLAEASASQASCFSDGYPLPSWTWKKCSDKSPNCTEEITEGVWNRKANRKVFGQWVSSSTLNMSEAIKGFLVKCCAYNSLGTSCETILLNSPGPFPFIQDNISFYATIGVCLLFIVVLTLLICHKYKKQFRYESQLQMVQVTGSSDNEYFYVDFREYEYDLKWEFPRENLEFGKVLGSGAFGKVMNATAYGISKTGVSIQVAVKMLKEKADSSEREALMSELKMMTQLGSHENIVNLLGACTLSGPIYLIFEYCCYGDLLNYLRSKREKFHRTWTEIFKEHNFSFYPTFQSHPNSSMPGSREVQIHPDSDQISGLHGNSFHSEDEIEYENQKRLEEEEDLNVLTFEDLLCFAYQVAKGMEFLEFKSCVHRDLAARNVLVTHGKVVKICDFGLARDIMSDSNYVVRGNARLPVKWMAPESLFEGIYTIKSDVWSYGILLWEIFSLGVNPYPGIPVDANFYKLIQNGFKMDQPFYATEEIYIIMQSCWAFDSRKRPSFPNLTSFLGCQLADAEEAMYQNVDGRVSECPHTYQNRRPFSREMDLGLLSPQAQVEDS

B1: MHC1694 - 1-18BA (antibody, V domains shown)
VH: QVTLKESGPGILQPSQTLSLTCSFSGFSLSTSTMGVGWIRQPSGKGLEWLLHILWNDSKYYNPALKSRLTISKDTYNKQVFLKIANVDTADTATYYCARIVYYSTYVGYFDVWGAGTTVTVSS
VL: DIQMTQSPSSLSASLGERVSLTCRASQEISGYLSWLQQKPDGTIKRLIYAASTLHSGVPKRFSGSRSGSDYSLTISRLESEDVADYYCLQYASYPFTFGSGTKLEIR
notes: Mouse monoclonal from hybridoma; Entries are called 'light chain' and 'heavy chain'; also called Ab1-18New
B2: MHC1692 - 1-23DA (antibody, V domains shown)
VH: QVTLKESGPGILQPSQTLSLTCSFSGFSLSTSTMGVGWIRQPSGKGLEWLLHILWNDSKYYNPALKSRLTISKDTYNKQVFLKIANVDTADTATYYCARIVYYSTYVGYFDVWGAGTTVTVSS
VL: DIQMTQSPSSLSASLGERVSLTCRASQEISGYLSWLQQKPDGTIKRLIYAASTLHSGVPKRFSGSRSGSDYSLTISRLESEDVADYYCLQYASYPFTFGSGTKLEIR
notes: Mouse monoclonal from hybridoma; also called Ab1-23DA
B3: MHC1693 - 3-16HA (antibody, V domains shown)
VH: EVQLQQSGAELVRPGALVKLSCKGSGFNIKDYYIHWVKQRPEQGLEWIGRIDPENDITMYDPKFQGKASITADTSSNTAYLQLSSLTSEDTAVYYCARNGNFFAYWGQGTLVTVSA
VL: not shown
notes: Mouse monoclonal from hybridoma; Entries are called 'light chain' and 'heavy chain'; also called Ab3-16HA

The assay addresses T1, 人FLT3/FLK2受体蛋白. The assay can be described thus: flow cytometry EC curve on REH cells. In general terms: In flow cytometry, cells or beads pass a laser one at a time.
Turning to B1, the binding result is “binds”. The entry for B2 is “binds”; for B3 it is “binds”.
